To fix the notation:
B1: target 1 C2U,U10C (mixed)
RNA 1: CACCCGUGCAAAAAUGCAGGGGUCUAAAACUGAGCGGAUAACCUCUCUAUGG
RNA 2: GGGAAUGGAUCCACAUCUACGAAUUCGUACCAUAGAGAGGUCAUCCGCUUACCGAGAUCGGAAGAGCACACGU
B2: target 1 insG 3' of 22,insU 3' of 20 (mixed)
RNA 1: B1 RNA 1
RNA 2: GGGAAUGGAUCCACAUCUACGAAUUCGUACGCAUUAGAGAGGUUAUCCGCUCACCGAGAUCGGAAGAGCACACGU
B3: target 1 insA 3' of 22,insG 3' of 8 (mixed)
RNA 1: B1 RNA 1
RNA 2: GGGAAUGGAUCCACAUCUACGAAUUCGUACACAUAGAGAGGUUAUGCCGCUCACCGAGAUCGGAAGAGCACACGU
B4: target 3 insG 3' of 9,insU 3' of 4 (mixed)
RNA 1: CACCCGUGCAAAAUUGCAGGGGUCUAAAACGACCUGAAUAUUUCAGAUCAAA
RNA 2: GGGAAUGGAUCCACAUCUACGAAUUCGUUUUUGAUCUGAAAUAGUUCAGUGUCUGCAGAUCGGAAGAGCACACGU
B5: target 3 insU 3' of 6,insU 3' of 6 (mixed)
RNA 1: B4 RNA 1
RNA 2: B4 RNA 2 with G44U, U46C, C47U, A48U, G49A, U50G
B6: target 3 insU 3' of 11,insU 3' of 5 (mixed)
RNA 1: B4 RNA 1
RNA 2: B4 RNA 2 with A43U, G44A, G49U, U50G
B7: target 3 A12U (mixed)
RNA 1: B4 RNA 1
RNA 2: GGGAAUGGAUCCACAUCUACGAAUUCGUUUUUGAUCUGAUAUAUUCAGGUCUGCAGAUCGGAAGAGCACACGU
B8: target 3 insC 3' of 5,insA 3' of 3 (mixed)
RNA 1: B4 RNA 1
RNA 2: B4 RNA 2 with G44U, U46C, C47A, A48C, U50G, G51A
B9: target 3 U2G,A9C (mixed)
RNA 1: B4 RNA 1
RNA 2: B7 RNA 2 with U40A, A43C, U50G
B10: target 3 insU 3' of 11,insC 3' of 4 (mixed)
RNA 1: B4 RNA 1
RNA 2: B4 RNA 2 with A43U, G44A, U50C
B11: target 3 A5G (mixed)
RNA 1: B4 RNA 1
RNA 2: B7 RNA 2 with U40A, A47G
B12: target 3 complement block 4-8 (mixed)
RNA 1: B4 RNA 1
RNA 2: B7 RNA 2 with U40A, U44A, U45A, C46G, A47U, G48C
B13: target 3 G4C,A9G (mixed)
RNA 1: B4 RNA 1
RNA 2: B7 RNA 2 with U40A, A43G, G48C
B14: target 3 U2C,C6G (mixed)
RNA 1: B4 RNA 1
RNA 2: B7 RNA 2 with U40A, C46G, U50C
B15: target 3 insG 3' of 8,insG 3' of 2 (mixed)
RNA 1: B4 RNA 1
RNA 2: B4 RNA 2 with G44U, U45G, U50G, G51U, U52G
B16: target 3 G3C,U7C (mixed)
RNA 1: B4 RNA 1
RNA 2: B7 RNA 2 with U40A, U45C, G49C
B17: target 3 C6A,U8C (mixed)
RNA 1: B4 RNA 1
RNA 2: B7 RNA 2 with U40A, U44C, C46A
B18: target 3 C1A,U7G (mixed)
RNA 1: B4 RNA 1
RNA 2: B7 RNA 2 with U40A, U45G, C51A
B19: target 3 C1G,A12U (mixed)
RNA 1: B4 RNA 1
RNA 2: B7 RNA 2 with C51G
B20: target 3 insU 3' of 14,insC 3' of 3 (mixed)
RNA 1: B4 RNA 1
RNA 2: B4 RNA 2 with A39U, U42A, A43U, G44A, U50G, G51C
B21: target 3 insC 3' of 7,insG 3' of 7 (mixed)
RNA 1: B4 RNA 1
RNA 2: B4 RNA 2 with G44U, U46C, C47G, A48C, G49A, U50G
B22: target 3 U7A,U22A (mixed)
RNA 1: B4 RNA 1
RNA 2: B7 RNA 2 with U30A, U40A, U45A
B23: target 3 U2G,A13G (mixed)
RNA 1: B4 RNA 1
RNA 2: B7 RNA 2 with A39G, U40A, U50G
B24: target 3 U2C (mixed)
RNA 1: B4 RNA 1
RNA 2: B7 RNA 2 with U40A, U50C
B25: target 3 U8C,A11C (mixed)
RNA 1: B4 RNA 1
RNA 2: B7 RNA 2 with U40A, A41C, U44C
B26: target 3 insC 3' of 9,insG 3' of 9 (mixed)
RNA 1: B4 RNA 1
RNA 2: B4 RNA 2 with G44C, U45G, C47U, A48C, G49A, U50G
B27: target 3 C1G,A5G (mixed)
RNA 1: B4 RNA 1
RNA 2: B7 RNA 2 with U40A, A47G, C51G
B28: target 3 insU 3' of 11,insC 3' of 5 (mixed)
RNA 1: B4 RNA 1
RNA 2: B4 RNA 2 with A43U, G44A, G49C, U50G
B29: target 3 insC 3' of 9,insA 3' of 8 (mixed)
RNA 1: B4 RNA 1
RNA 2: B4 RNA 2 with G44C, U46A, C47U, A48C, G49A, U50G
B30: target 3 insC 3' of 8,insC 3' of 5 (mixed)
RNA 1: B4 RNA 1
RNA 2: B4 RNA 2 with G44U, U45C, G49C, U50G
B31: target 3 insC 3' of 8,insA 3' of 8 (mixed)
RNA 1: B4 RNA 1
RNA 2: B4 RNA 2 with G44U, U45C, U46A, C47U, A48C, G49A, U50G

What is called Kd is the equilibrium constant for the complex coming apart. Read a high Kd as weaker binding.

Where a chain is given by its changes, count along the chain named. Names and notes keep the numbering of the source.

The target of this series is T1, EsCas13d, nuclease-dead (Eubacterium siraeum, UniProt B0MS50, R295A;H300A;R849A;H854A).
T1 sequence: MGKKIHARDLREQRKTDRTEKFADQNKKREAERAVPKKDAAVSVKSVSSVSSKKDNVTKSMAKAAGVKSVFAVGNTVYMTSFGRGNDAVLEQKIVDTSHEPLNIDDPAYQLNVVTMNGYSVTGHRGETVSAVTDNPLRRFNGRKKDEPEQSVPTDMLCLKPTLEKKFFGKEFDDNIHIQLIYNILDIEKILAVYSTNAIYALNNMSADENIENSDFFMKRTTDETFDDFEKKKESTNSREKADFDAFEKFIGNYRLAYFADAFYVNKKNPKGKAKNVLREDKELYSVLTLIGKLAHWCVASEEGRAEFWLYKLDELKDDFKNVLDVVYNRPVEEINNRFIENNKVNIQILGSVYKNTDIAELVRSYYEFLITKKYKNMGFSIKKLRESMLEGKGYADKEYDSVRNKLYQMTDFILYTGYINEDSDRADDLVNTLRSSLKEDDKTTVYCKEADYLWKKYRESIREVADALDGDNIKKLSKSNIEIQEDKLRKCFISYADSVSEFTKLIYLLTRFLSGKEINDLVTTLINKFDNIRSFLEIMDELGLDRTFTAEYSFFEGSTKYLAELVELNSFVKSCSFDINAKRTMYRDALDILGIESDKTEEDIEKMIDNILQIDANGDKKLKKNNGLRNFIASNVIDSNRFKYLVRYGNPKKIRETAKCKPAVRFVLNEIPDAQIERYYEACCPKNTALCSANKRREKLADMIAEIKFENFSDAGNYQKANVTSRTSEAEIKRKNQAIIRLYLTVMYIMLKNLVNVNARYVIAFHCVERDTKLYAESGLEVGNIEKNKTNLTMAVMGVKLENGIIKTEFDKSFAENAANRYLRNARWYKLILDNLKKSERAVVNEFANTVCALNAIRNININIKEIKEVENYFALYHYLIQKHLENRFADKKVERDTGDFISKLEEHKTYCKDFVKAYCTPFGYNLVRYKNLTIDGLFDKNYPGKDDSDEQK
Nature of the series: crRNA (strand 1, pre-loaded); Mg2+; 40 mM Tris-HCl pH 7.5, 150 mM NaCl, 6 mM MgCl2, 1 mM DTT, 0.1% Tween-20, 0.2 mg/ml BSA; 25 C; 10 min per concentration, then washed. Particulars: tags: His6-TwinStrep-SUMO cleaved; N-terminal SNAP kept (SNAP-Surface 488); label: 3' end held by stalled T7 RNA polymerase.
B1 came in with a dissociation constant Kd of 20.8 ± 1.6 nM.
In the case of B2 it was 38 ± 5 nM.
As for B3, the figure is 17.4 ± 1 nM; as for B4, 74.5 ± 19 nM; as for B5, 17.3 ± 1.2 nM.
In the case of B6 it was 64 ± 13 nM.
The molecule B7 displayed a Kd of 73.5 ± 19.5 nM.
As for B8, the figure is 7.35 ± 0.5 nM; as for B9, 106 ± 49.5 nM; as for B10, 90 ± 26 nM.
As for B11, the figure is 20.9 ± 1.8 nM; as for B12, 51.5 ± 5.5 nM; as for B13, 43.5 ± 6.5 nM.
In the case of B14 it was 31.5 ± 4.5 nM.
B15: binding was characterised by a dissociation constant (Kd) of 57 ± 27 nM.
In the case of B16 it was 64 ± 12 nM; in that of B17, 34.9 ± 3.6 nM; in that of B18, 24.5 ± 6 nM.
In the case of B19 it was 63 ± 18 nM; in that of B20, 71 ± 28 nM; in that of B21, 16.8 ± 1.45 nM.
As to B22, binding was put at a Kd of 42.5 ± 7.25 nM.
As for B23, the figure is 73.5 ± 29 nM; as for B24, 88.5 ± 18 nM.
As for B25, the figure is 57 ± 14 nM; as for B26, 118 ± 50 nM; as for B27, 55 ± 22 nM.
In the case of B28, binding was characterised by a dissociation constant (Kd) of 81.5 ± 12.5 nM.
As for B29, the figure is 43.9 ± 7.35 nM; as for B30, 74.5 ± 9.5 nM.
As for B31, the figure is 76.5 ± 19 nM.

(Values after paper PMC10786891, “Massively parallel profiling of RNA-targeting CRISPR-Cas13d”.)
